Series [1] addresses T1, AlkX (Rv3249c), TetR family regulator (Mycobacterium tuberculosis) (UniProt O05892).
T1 sequence: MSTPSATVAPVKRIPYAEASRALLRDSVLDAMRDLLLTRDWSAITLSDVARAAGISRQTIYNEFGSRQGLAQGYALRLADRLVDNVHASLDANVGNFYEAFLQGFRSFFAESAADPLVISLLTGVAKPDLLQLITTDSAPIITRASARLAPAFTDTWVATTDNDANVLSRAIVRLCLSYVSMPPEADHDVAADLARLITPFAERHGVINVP
Description: EMSA. For orientation: In EMSA bound probe runs differently from free probe, usually more slowly.

In series [2] the target is T1, AlkX (Rv3249c), TetR family regulator (Mycobacterium tuberculosis). Put plainly: competition.

The record followed here is paper PMC9430723.

Take “CGGCGATTGACTGTTCTACCGACTTCATGCGCCGTCGACCGGCCATGCACCCGTCCTCTCGCACTCGTTGTGACCGCACAGTACTGGGTACTCTGCGAGGATGACGGGTCGCGTAGGGAACCCGAAGGACCACGCCGTGGTGATCGGAGCTAGCATCGCCGGGTTGTGCGCCGCGCGGGTGCTCTCGGACTTCTACTCCA (double strand) [rv3253c promoter probe]”: in series [1], the binding entry is given as “no binding”. As for “TCGGCAAGCTCGAGAGAGCGCGACCCGGAGGTGTTGAACTAGCTTCGCCGCGTATTTACAAATTGCGTTATATGTCTAGACATAAGACGCAAACTGCTCTATTGTCAAATCCCAACGTGGTGTGGCTCATGAGGAGGTTTGGCATATGACCACGCAAATCGGCTCTGGTGGACCCGAAG (double strand) [unlabeled (cold) rv3252c (alkB) promoter probe]”, in series [2], the binding result was “binds”. With “TCGGCAAGCTCGAGAGAGCGCGACCCGGAGGTGTTGAACTAGCTTCGCCGCGTATTTACAAATTGCGTTATATGTCTAGACATAAGACGCAAACTGCTCTATTGTCAAATCCCAACGTGGTGTGGCTCATGAGGAGGTTTGGCATATGACCACGCAAATCGGCTCTGGTGGACCCGAAG (double strand) [rv3252c (alkB) promoter probe]”, in series [1], the binding entry was “binds”.
